# Experimental data as given in patent US8609353B2, “Diagnostics and methods for removal and detection of interferents” (Systagenix Wound Management (US), Inc., priority 2007, dated 2013).
# Primed or numbered codes have the meaning given here. * marks the point of attachment. Dabcyl″ = label, CN(C)c1ccc(/N=N/c2ccc(C(=O)*)cc2)cc1
# B1: human neutrophil elastase (protein)
# chain: IVGGRRARPHAWPFMVSLQLRGGHFCGATLIAPNFVMSAAHCVANVNVRAVRVVLGAHNLSRREPTRQVFAVQRIFENGYDPVNLLNDIVILQLNGSATINANVQVAQLPAQGRRLGNGVQCLAMGWGLLGRNRGIASVLQELNVTVVTSLCRRSNVCTLVRGRQAGVCFGDSGSPLVCNGLIHGIASFVRGGCASGLYPDAFAPVAQFVNWIDSIIQ
# B2: papain (in ACCUZYME, a papain-containing debriding ointment, DPT Laboratories) (protein)
# chain: IPEYVDWRQKGAVTPVKNQGSCGSCWAFSAVVTIEGIIKIRTGNLNEYSEQELLDCDRRSYGCNGGYPWSALQLVAQYGIHYRNTYPYEGVQRYCRSREKGPYAAKTDGVRQVQPYNEGALLYSIANQPVSVVLEAAGKDFQLYRGGIFVGPCGNKVDHAVAAVGYGPNYILIKNSWGTGWGENGYIRIKRGTGNSYGVCGLYTSSFYPVKN
# Key:
# [1] = test system: Pseudomonas aeruginosa; assay: HE1-Affigel bead HRP release specificity test with overnight grown culture; format: biochemical; conditions: 100 μl overnight grown culture; ABTS over 5 minutes
# Protocol: (§1) Specificity was tested with 20 μl of a 1:10 dilution of the Affigel beads reacted with 100 μl media control or overnight grown culture of Pseudomonas aeruginosa, Streplococcus pyogenes, Escherichia coli, and Enterococcus faecalis in 200 μl total volume, as described above. The samples were spun down and a 20 μl aliquot measured in 500 μl total volume ABTS over 5 minutes.
# [2] = test system: bacterial proteases; assay: HE1 specificity versus bacterial proteases; format: biochemical
# Protocol: as §1
# [3] = biological target: T1, elastase (Homo sapiens, UniProt P08246); assay: HE1-Affigel bead HRP release spin through assay with elastase; format: biochemical; conditions: 5 μg/ml elastase, 5 minutes; ABTS substrate over 5 minutes
# T1 sequence (P08246 30-267): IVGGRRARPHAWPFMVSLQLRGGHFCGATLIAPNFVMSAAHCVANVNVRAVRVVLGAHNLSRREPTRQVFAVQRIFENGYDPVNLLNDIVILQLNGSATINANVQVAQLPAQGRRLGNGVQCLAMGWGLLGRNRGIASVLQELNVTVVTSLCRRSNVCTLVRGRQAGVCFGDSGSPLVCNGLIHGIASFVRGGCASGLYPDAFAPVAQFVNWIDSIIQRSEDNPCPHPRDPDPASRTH
# Protocol: The peptide was tested for activity by conjugating one end to Affigel 10 beads (BioRad) and the other end to HRP reporter enzyme. The sequence of the HE1 peptide used for this assay was H2N-PFPQANYITYC-OH) (SEQ ID NO: 9). The activity was measured by detecting the release of HRP from the beads in a spin through assay. Testing was performed with 20 μl of a 1:10 dilution of HE1-Affigel beads reacted with 5 μg/ml elastase in 200 μl total volume for 5 minutes.
# [4] = test system: Pseudomonas aeruginosa (PA14); assay: PAIN1 FRET assay with overnight grown bacterial culture; format: biochemical; conditions: 10 μl overnight grown culture, over one hour
# Protocol: (§2) PAIN1 was designed from a high throughput screen. The peptide was tested in the FRET format with the fluorescent dye Edans attached to one end of the peptide and the quencher Dabcyl attached to the other end of the peptide. The sequence of the PAIN1 peptide used for this assay was NH2-E(Edans) PMPPLCTSMK(Dabcyl)-COOH (SEQ ID NO: 10). Cleavage of the peptide substrate by papain will produce a fluorescent signal. The peptide was tested using 5 μl of a 5 mg/ml solution with 10 μl of overnight grown bacterial culture or with 10 μl of 120 mg/ml ACCUZYME®, a papain-containing debriding ointment (DPT Laboratories), in 100 μl total volume. The bacteria cultures tested were Pseudomonas aeruginosa (PA14), Streptococcus pyogenes (grown in BHI and TSB media), E. coli, Enterococcus faecalis, and Serratia marcesens. The relative fluorescence is shown over one hour. […] In particular, the bacteria that appear to cross-react the most with PAIN1 were Pseudomonas aeruginosa and Streptococcus pyogenes.
# [5] = test system: Streptococcus pyogenes; assay: as above; format: biochemical; conditions: 10 μl overnight grown culture, over one hour
# Protocol: as §2
# [6] = biological target: T2, papain (Carica papaya, UniProt P00784); assay: PAIN1 FRET assay with papain-containing ointment ACCUZYME; format: biochemical; conditions: 10 μl of 120 mg/ml ACCUZYME, over one hour
# T2 construct: purchased DPT Laboratories ACCUZYME
# T2 sequence (P00784 134-345): B2 chain
# Protocol: as §2
# [7] = biological target: T3, human neutrophil elastase (Homo sapiens, UniProt P08246); assay: FRET protease assay of bacterial peptide substrates with human neutrophil elastase (cross-reactivity); format: biochemical
# T3 sequence (P08246 30-267): T1 sequence (P08246 30-267)
# Protocol: Based on the concentration of elastase from human wound fluid, it was determined whether this amount of elastase (0-50 μg/ml) would cause false positives in a protease assay using fluorescence resonance energy transfer (FRET) with peptides that are specific substrates for bacteria (FIGS. 3A-3C). Broad spectrum pathogen peptides such as CPI2 (peptide sequence EGAMFLEAIPMSIPK (referred to herein as SEQ ID NO: 3)) (that reacts with Staphylococcus aureus, Proteus mirabilis, Pseudomonas aeruginosa, Enterococcus faecalis, and Streptococcus pyogenes) were studied. Specific peptides for Pseudomonas aeruginosa (E8 (peptide sequence […] (referred to herein as SEQ ID NO: 4)) and G6 (peptide sequence EAAHQSALQSAK (referred to herein as SEQ ID NO: 5))), Staphylococcus aureus (SAP2 (peptide sequence […] (referred to herein as SEQ ID NO: 6)), Escherichia coli (T2 (peptide sequence EVSRRRRRGGK (referred to herein as SEQ ID NO: 7)) and T3 (peptide sequence KKASEVSRRRRRGGK (referred to herein as SEQ ID NO: 8)) were also studied. The […] were tested with three concentrations of human neutrophil elastase. The peptide substrates were tested in the FRET format with the fluorescent dye Edans attached to one end of the peptide and the quencher Dabcyl attached to the other end of the peptide. In this FRET assay format, amino acids are added to the terminals of the peptides to introduce the FRET assay dye. For example, an “E” is added to the N terminal and a “K” is added to the C terminal. For example, the “E” can be (E-EDANS) and the “K” can be (K-Dabcyl). Cleavage of the peptide substrate by human neutrophil elastase will produce a fluorescent signal.
# [8] = biological target: T4, G6 (peptide sequence EAAHQSALQSAK)
# T4 chain: EAAHQSALQSAK
# [9] = biological target: T5, CPI2 (peptide sequence EGAMFLEAIPMSIPK)
# T5 chain: EGAMFLEAIPMSIPK
# [10] = biological target: T6, T3 (peptide sequence KKASEVSRRRRRGGK)
# T6 chain: KKASEVSRRRRRGGK
# [11] = biological target: T7, T2 (peptide sequence EVSRRRRRGGK)
# T7 chain: EVSRRRRRGGK
# [12] = biological target: T8, E8 (peptide sequence EQADALHDQASALK)
# T8 chain: EQADALHDQASALK
# [13] = biological target: T9, SAP2 (peptide sequence ETKVEENEAIQK)
# T9 chain: ETKVEENEAIQK
# [14] = biological target: T10, PAIN1 peptide (NH2-E(Edans) PMPPLCTSMK(Dabcyl)-COOH)
# T10 chain: PMPPLCTSMK
molecule,measurement,setting,value
H2N-PFPQANYITYC-OH (H-PFPQANYITYC-OH) [HE1],HRP release signal at 405 nm,[1],very minor increase
same,cross-reaction with bacterial proteases,[2],not cross react
same,HRP release signal at 405 nm,[3],clear signal
NH2-E(Edans) PMPPLCTSMK(Dabcyl)-COOH ({E(Edans)}-PMPPLCTSMK(Dabcyl″)-OH) [PAIN1],relative fluorescence response,[4],lower but significant responses
same,relative fluorescence response,[5],lower but significant responses
same,relative fluorescence response,[6],high response
EGAMFLEAIPMSIPK (CPI2-related peptide),cross-reactivity with elastase (fluorescent signal),"[7]; 50 μg/ml of elastase, FIG. 3C",cross-reacted
same,cross-reactivity with elastase (fluorescent signal),"[7]; Five μg/ml of elastase, FIG. 3B",small response
EQADALHDQASALK (Pseudomonas aeruginosa E8-related peptide),cross-reactivity with elastase (fluorescent signal),"[7]; 50 μg/ml of elastase, FIG. 3C",cross-reacted
B1,"FRET peptide cleavage (fluorescent signal), 500 ng/ml elastase",[8],no signal on any of the peptides when tested with 500 ng/ml of elastase
same,"FRET peptide cleavage (fluorescent signal), 500 ng/ml elastase",[9],no signal on any of the peptides when tested with 500 ng/ml of elastase
same,"FRET peptide cleavage (fluorescent signal), 5 ug/ml elastase",[9],Five µg/ml of elastase cross-reacted with the broad spectrum peptide CPI2 (small response)
same,"FRET peptide cleavage (fluorescent signal), 50 ug/ml elastase",[9],50 µg/ml of elastase cross-reacted with both peptides CPI2 and E8
same,"FRET peptide cleavage (fluorescent signal), 500 ng/ml elastase",[10],no signal on any of the peptides when tested with 500 ng/ml of elastase
same,"FRET peptide cleavage (fluorescent signal), 500 ng/ml elastase",[11],no signal on any of the peptides when tested with 500 ng/ml of elastase
same,"FRET peptide cleavage (fluorescent signal), 500 ng/ml elastase",[12],no signal on any of the peptides when tested with 500 ng/ml of elastase
same,"FRET peptide cleavage (fluorescent signal), 50 ug/ml elastase",[12],50 µg/ml of elastase cross-reacted with both peptides CPI2 and E8
same,"FRET peptide cleavage (fluorescent signal), 500 ng/ml elastase",[13],no signal on any of the peptides when tested with 500 ng/ml of elastase
B2,"FRET peptide cleavage (relative fluorescence over one hour), 10 ul of 120 mg/ml ACCUZYME",[14],A high response was seen with papain ointment
